These results are taken from patent CN113234156A.

Assay [1] concerns the target T1, Mb重组蛋白 (recombinant myoglobin) (UniProt P02144).
T1 sequence (looked up): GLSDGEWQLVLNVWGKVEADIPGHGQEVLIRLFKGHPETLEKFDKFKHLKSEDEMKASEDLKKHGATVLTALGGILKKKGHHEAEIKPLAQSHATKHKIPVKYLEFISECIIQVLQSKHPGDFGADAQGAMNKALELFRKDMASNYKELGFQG
Kind of assay: indirect ELISA; Mb coated 2 ug/mL; hybridoma supernatant 1/50. For orientation: An ELISA detects its analyte on a solid surface through an enzyme-linked reagent.

The target of assay [2] is T1, Mb重组蛋白 (recombinant myoglobin). Described as above. The source holds these as a separate data set.
Assay [3] has the same target. Kind of assay: indirect ELISA; Mb coated 2 ug/mL; hybridoma supernatant 1/200.
Assay [4] shares this target. In words: indirect ELISA; Mb coated 2 ug/mL; hybridoma supernatant 1/400.
For assay [5] the target is unchanged. In words: indirect ELISA; Mb coated 2 ug/mL; hybridoma supernatant 1/100.

B1: 鼠单克隆抗体 1E6 (antibody, V domains shown)
VH: EVQLQQSGAELVKPGASVKLSCTTSGFNIKDTYIHWVRQRPEQGLEWIGNIDPANGNTKYDPEFQGKATITADTSSNTAYLHLSSLTSEDTAVYYCARVDGSRDFDYWGQGTTLTVSS
VL: DIVMTQAAPSVTVTPGESVSISCRSSKSLLYSNGNTYLYWFLQRPGQSPQLLIYRMSNLASGVPDRFSGSGSGTAFTLRISRVEAEDVGVYYCMQHLEYPLTFGGGTKLELK
As for B1, the OD450 in assay [1] is 1.73 OD; in assay [2] it was 1.69 OD; in assay [3], 1.18 OD; in assay [4], 0.857 OD; in assay [5], 1.33 OD.

B2: 鼠单克隆抗体 9B2 (antibody, part only; not given: light chain variable domain, V domains shown, part only)
VH: QVQLQQSGAALVRPGTSVKVSCKASGYAFTNYLIEWVKQRPGQGLEWIGVINPGSGGTDYNEKFKGKATLTADKSSSTAYMQLSSLTSDDSAVYFCARSSLYGSSRMDYWGQETSVTVSS
In the case of B2, the OD450 came out at 1.7 OD in assay [1]; 1.69 OD in assay [2]; 1.46 OD in assay [3]; 1.27 OD in assay [4]; 1.63 OD in assay [5].
